In patent publication US20160024208A1 (Regeneron, published 2016):

T1: C-term Biotin Nav1.7 (3-1) peptide, human (human, not fully specified; C-terminal biotin attached via a G4S linker)
T1 construct: Synthetic peptide; also called Human Nav1.7 3-1 C-term biotin
T1 peptide: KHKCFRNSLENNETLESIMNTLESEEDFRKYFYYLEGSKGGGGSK


Legend:
[1] = target: T1, C-term Biotin Nav1.7 (3-1) peptide, …; test: SPR, captured biotin-peptide, antibody analyte
[2] = target: T2, full-length human Nav1.7 fused at its N-terminus to GFP, expressed in HEK293 cells (human, UniProt Q15858 1-1988); test: flow cytometry on Nav1.7-GFP-HEK293, antibody 3.3 nM
T2 construct: Voltage-gated sodium channel alpha subunit; In the Western blot it stood as denatured cell lysate; also called hNav 1.7-GFP-HEK293; Nav 1.7-GFP-HEK293; not shown: green fluorescent protein (GFP) at the N-terminus
Description: The specificity of binding of anti-Naᵥ 1.7 human antibodies to full-length Naᵥ 1.7 expressed in HEK293 cells was determined by peptide competition experiments using flow cytometry.
HEK293 cells stably-transfected with full-length Naᵥ 1.7 fused at its N-terminus to GFP (Naᵥ 1.7-GFP-HEK293) were used for this study. Antibody binding to the transfected cells overexpressing Naᵥ 1.7 was compared to binding in the presence of excess peptide and to binding to the parental HEK293 cell line. To perform the binding experiments, adherent cells were collected using 1 mM EDTA in PBS, washed and re-suspended in cold PBS containing 5% FBS. For each binding experiment the anti-Naᵥ 1.7 antibody at a final concentration of 3.3 nM (in PBS/5% FBS) was added to cells either directly or after incubating for 10 min on ice with a 1000-fold molar excess (3.3 uM final concentration in PBS/5% FBS) of synthetic peptide with sequence corresponding to the loop specificity of the antibody. The antibodies designated as H4H391P, H4H443B, H4H448B, and H1M797N were preincubated as described above with a synthetic peptide corresponding to EC loop 3-1 (amino acid residues 269-338 of SEQ ID NO: 670), whereas the antibodies designated as H4H468P and H1 M852N were preincubated with a synthetic peptide corresponding to EC loop 3-3 (amino acid residues 1333-1382 of SEQ ID NO: 670). The antibody or antibody-peptide mixture was then allowed to incubate with cells for 20 min on ice, followed by addition of 500 uL of cold PBS/5% FBS. Cells were collected by centrifugation, resuspended in 500 uL of cold PBS/5% FBS, and then secondary antibody matched to the antibody isotype (either anti-human-Fc conjugated to Cyanine 5 or anti-mouse-Fc conjugated to allophyococyanin) was added. Binding was detected on the flow cytometry instrument and analyzed as percent binding using the instrument software. For FACS analysis appropriate gating was applied so that only healthy, live cells were counted. Background staining of secondary antibodies alone to Naᵥ 1.7-GFP-HEK293 cells was tested and recorded for all samples, and results ranged between 1-2% binding.

[3] = target: T2, full-length human Nav1.7 fused at its …; test: flow cytometry; % stained hNav1.7-GFP-HEK293 minus parental HEK293
Summary of the method: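 Percent-stained values come from FACS of healthy live cells, taking transfected-cell staining minus parental HEK293 staining. Cells were exposed on ice for 20 min to 1-13 nM antibody, then 20 min to 1.7 nM fluorescent anti-human or anti-mouse Fc secondary.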

| Kd [1] | t1/2 [1] | % Binding Nav1.7 (Stable Line) [2] | % Binding Nav1.7 [3] | binding result [1] | Binder |
| --- | --- | --- | --- | --- | --- |
| 0.27 nM | 1.45 h | 63% | 63% |  | H1M879N (antibody, V domains shown, Hybridoma-derived) VH: EVQLVESGGGLVKPGGSLRLSCAASGFTFSSYTIHWVRQAPGKGLEWVSSISSSSSYIYYVDSVKGRFTISRDNAKNSVYLQMNSLRAEDTAVYYCATSSITARGYFDYWGQGTLVTVSS VL: EIVLTQSPATLSLSPGERVTLSCRASQSVSSYLAWYQQKPGQAPRLLIYDASNRATGIPARFSGSGSGTDFTLTISSLEPEDFAVYYCQQRNIWPPTFGQGTKVEIK |
| 0.359 nM | 1.65 h | 45.4% | 14.4% |  | H1M797N (antibody, V domains shown) VH: QVQLVESGGGVVQPGRSLRLSCAASGFTFSSYGMHWVRQAPGKGLEWVAVISYDGNNKHFADSVKGRFTISRDNSKNTLNLQMNSLRAEDRAVYYCARGASGFVLDIWGQGTMVTVSS VL: DIVMTQTPLSSPVTLGQPASISCRSSQSLVRSDGNTYLSWLQQRPGQPPRLLIYKISNRFSGVPDRFSGSGAGTDFTLKISRVEAEDVGIYFCMQTTQFPFTFGPGTKVDIK |
| 0.511 nM | 1.18 h | 49.5% | 49.5% |  | H1M801N (antibody, V domains shown, also called H1H801N) VH: QVQVVESGGGVVQPGRSLRLSCAASGFTFSNYGMHWVRQAPGKGLEWVTVISYDGSNKNYADSVKGRFTISRDNSKNTLYLQMNSLRAEDTAMYYCARGGSGFAFDIWGQGTMVTVSS VL: DIVMTQTPLSSPVTLGQPASISCRSSQSLVRSDGNTYLSWLQQRPGQPPRLLIYKISNRFSGVPDRFSGSGAGTDFTLKISRVEADDVGVYYCMQTTQFPFTFGPGTKVDIK |
| 19.2 nM | 0.0633 h | 68.9% | 68.9% |  | H1M836N (antibody, V domains shown) VH: QVQLVESGGGVVQPGRSLRLSCAASGFTFSSYGMHWVRQAPGKGLEWVAVISYDGNNKYYADSVKGRFTISRDNSKNTLYLQMNSLRAEDTAVYYCAKGSAGYALDYWGQGTLVTVSS VL: not shown |
| 0.239 nM | 1.36 h |  | 8.6% |  | H1H1006B (antibody, V domains shown, Fully human antibody; also called H4H1006B-1) VH: EVQLVESGPGLVKSSETLSLKCTVSGGSISSSGYYWGWIRQPPGKGLEWIGSIHRSGSTFYNPSLKSRVTISVDTSKSQFSLRLTSVTAADTSVYFCGRHGRDYYYGMDVWGQGTTVTVSS VL: DIQMTQSPSSVSASVGDRVTITCRSSQDINNWLVWYQQKPGKAPKVLIYGASRLQSGVPSRFSGSGSGTDFTLTISSLQPEDFATYYCQQANSFPLTFGGGTKVEIKR |
|  |  | 64.1% | 68.6% | no binding | H1M852N (antibody, V domains shown, constant region may differ; also called H4H852N) VH: QVQLVESGGGVVQPGRSLTLSCAASGFMFNRFGMHWVRQAPGKGLDWVAVIWYDGSNKYYADSVKGRFTISRDNSKNTLYLQVNSLRAEDTAVYYCAREGTPHYYDSSGLDYWGQGTLVTVSS VL: AIQMTQSPSSLSAYVGDRVTITCRASQDIRNDLGWYQQKPGKAPNLLIYDISSLQSGVPSRFSGSGSGTDFTLTISSLQPEDFATYYCLQDYNYPLTFGGGTKVEIK |
